Laboratory results as given in patent publication US20200216495A1 (ADRX, published 2020).
Several values for one entry are separate records, joined by “and”; a condition that tells them apart may be missing. Equal entries are not always repeated. Square brackets hold non-standard residues; d marks the D form. Ends that are not written are not given here.

Target: Ac-VQIINK-NH2 (SEQ ID NO: 23) (N-terminal acetyl (Ac); C-terminal amide (NH2))
Assay: cell-based or functional assay

Binder | VQIINK Inhibition IC50
[dW][dR][dL][dR][dI][dH][dW] [wrlrihw] | 2.23 µm
[dW][dR][dL][dK][dF][dR][dW] [wrlkfrw] | 2.23 µm
[dL][dK][dI][dA][dI][dH][dY][dH] [lkiaihyh] | 2.26 µm
[dW][dQ][dL][dK][dV][dQ][dW] [wqlkvqw] | 2.27 µm
[dF][dR][dL][dR][dI][dW][dW][dF] [frlriwwf] | 2.29 µm
[dF][dK][dI][dK][dI][dK][dW] (not fully specified; printed as fkikikw) [fkikikw] | 2.35 µm
[dL][dK][dI][dH][dI][dR][dH][dW] [lkihirhw] | 2.38 µm
[dW][dR][dL][dD][dV][dR][dW] [wrldvrw] | 2.42 µm
[dW][dR][dL][dK][dV][dR][dW] [wrlkvrw] | 2.45 µm
[dF][dR][dI][dK][dL][dR][dW] [friklrw] | 2.49 µm
[dF][dK][dL][dW][dL][dR][dW][dF] [fklwlrwf] | 2.52 µm
[dW][dR][dL][dK][dV][dR][dW][dF] [wrlkvrwf] | 2.53 µm
[dF][dR][dI][dR][dL][dR][dW] [frirlrw] | 2.58 µm
[dW][dR][dL][dR][dI][dM][dW] [wrlrimw] | 2.61 µm
[dF][dK][dL][dK][dI][dK][dW] [fklkikw] | 2.66 µm
[dL][dR][dI][dK][dI][dR][dF][dH] [lrikirfh] | 2.69 µm
[dW][dQ][dL][dQ][dV][dR][dW] [wqlqvrw] | 2.74 µm
[dL][dE][dL][dK][dI][dK][dF][dW] [lelkikfw] | 2.78 µm
[dW][dT][dL][dR][dI][dH][dW] [wtlrihw] | 2.82 µm
[dL][dK][dI][dQ][dI][dH][dY] [lkiqihy] | 2.82 µm
[dW][dR][dL][dR][dI][dA][dW] [wrlriaw] | 2.86 µm

Binder | VQIINK Inhibition IC50
[dL][dK][dL][dH][dL][dH][dF][dH] [lklhlhfh] | 2.87 µm
[dW][dR][dL][dR][dI][dT][dW] [wrlritw] | 2.89 µm
[dL][dK][dI][dR][dI][dH][dY][dR] [lkirihyr] | 3.02 µm
[dW][dA][dL][dR][dI][dH][dW] [walrihw] | 3.12 µm
[dW][dR][dL][dT][dI][dH][dW] [wrltihw] | 3.16 µm
[dW][dR][dL][dK][dV][dD][dW] [wrlkvdw] | 3.21 µm
[dW][dA][dL][dK][dV][dR][dW] [walkvrw] | 3.32 µm
[dL][dK][dV][dR][dW][dW][dW][dR] [lkvrwwwr] | 3.34 µm
[dL][dR][dI][dR][dI][dH][dY][dH] [lririhyh] | 3.34 µm
[dW][dM][dL][dR][dI][dH][dW] [wmlrihw] | 3.34 µm
[dL][dK][dI][dR][dI][dH][dY][dE] [lkirihye] | 3.39 µm
[dW][dE][dL][dR][dI][dH][dW] [welrihw] | 3.46 µm
[dW][dN][dL][dK][dV][dN][dW] [wnlkvnw] | 3.5 µm
[dW][dR][dL][dK][dV][dA][dW] [wrlkvaw] | 3.57 µm
[dW][dW][dL][dK][dL][dR][dW][dW] [wwlklrww] | 3.79 µm
[dL][dK][dI][dR][dI][dH][dY][dA] [lkirihya] | 3.83 µm
[dW][dD][dL][dK][dV][dR][dW] [wdlkvrw] | 3.87 µm
[dW][dR][dL][dA][dV][dR][dW] [wrlavrw] | 3.89 µm
[dW][dL][dK][dI][dV][dW] [wlkivw] | 3.93 µm
[dF][dR][dL][dW][dI][dH][dW] [frlwihw] | 4.01 µm
[dF][dK][dI][dE][dI][dE][dY][dH] [fkieieyh] | 4.03 µm

Binder | VQIINK Inhibition IC50
[dV][dR][dW][dW][dK][dL][dR][dW] [vrwwklrw] | 4.06 µm
[dW][dR][dL][dW][dI][dH][dW][dW] [wrlwihww] | 4.07 µm
[dI][dL][dK][dI][dV][dW] [ilkivw] | 4.13 µm
[dK][dV][dR][dW][dW][dL][dR][dW] [kvrwwlrw] | 4.35 µm
[dW][dR][dL][dK][dV][dE][dW] [wrlkvew] | 4.36 µm
[dW][dR][dT][dK][dV][dR][dW] [wrtkvrw] | 4.41 µm
[dF][dW][dL][dR][dI][dH][dW][dF] [fwlrihwf] | 4.42 µm
[dR][dR][dL][dK][dV][dR][dW][dW] [rrlkvrww] | 4.44 µm
[dV][dK][dV][dW]G[dR][dL][dW] (not fully specified (residue 5); printed as vkvwgrlw) [vkvwgrlw] | 4.51 µm
[dL][dK][dI][dA][dI][dH][dY] [lkiaihy] | 4.77 µm
[dT][dK][dI][dR][dI][dH][dY] [tkirihy] | 4.77 µm
[dT][dL][dK][dI][dV][dW] [tlkivw] | 5.02 µm and 7.98 µm
[dY][dR][dL][dK][dV][dR][dW] [yrlkvrw] | 5.12 µm
[dL][dK][dI][dR][dI][dA][dY][dH] [lkiriayh] | 5.21 µm
[dL][dK][dI][dR][dI][dH][dA] [lkiriha] | 5.3 µm
[dW][dK][dL][dK][dL][dR][dW] [wklklrw] | 5.33 µm
[dR][dL][dK][dV][dR][dW][dW] [rlkvrww] | 5.35 µm
[dT][dI][dK][dL][dV][dW] [tiklvw] | 5.37 µm
[dL][dK][dI][dR][dI][dH][dA][dH] [lkirihah] | 5.54 µm
